From the domain aggregation screens of Martell et al. (2025)

assay: soluble fraction after stress (log2 fold change); higher = more stays soluble; pooled small domains, quantitative proteomics; conditions: stress: 75 degC
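Also: 20 min heating vs room temperature control held 20 min.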

Sequence | soluble fraction (log2)
HMPHFGVVLQMDDWKTLRDRLEARDDIDWVMKPNLRFEGQPGEQATLFIRDPSGNALEFKGFADLSQVF | -0.116
HMPHSTTDFSVSPDERQIVYSTNLQGRYDLWALDHNQGYPYPLTKKGQMSFFIKHLPGSQMILTGFD | -0.161
HMPIDQAKRKKEIIQNFGIRKIYKFSEIFDLKFGRDNIIVTFLIILDMIKEGVVEINENKEEIEFEYK | -0.152
HMPIKYTHKGYTINVSRSKMNGTTFVKVVDPKGQVIQQSQDNRIQDVNQLVTTMKQYIDTLKPS | -0.274
HMPILRDEVYLSIKEAILTGELAPGERISIGRLLPQIGFSPTPIREALLKLEQEGFVSRLQRGGFIVSR | -1.91
HMPIQLLSEKYMDEHWDELDKDEVSLYQNMSIRFLLKHEDDINWKLYSTNPFISIDTIDFFKDKISWVNI | -2.34
HMPKAKASARNDTRTRLLTIGTEVLSQKGFASTGVEEILSVAGVPKGAFYYYFESKAAFGLAVIENYE | 0.259
HMPKAMAIMSEIAGTVHIDDTKKSRHVEVTGVDDNGAPVTKSYLIPFGHRLKVMEGDVLVKGALLT | -0.0702
HMPKHHIESVIPENFAGERLDKVLAVLWGTFSRAQLTRWIRDGSLLLDGHKVKPNTKVDGSEKIVLQAEVA | -1.27
HMPKNEHETKAIGNQTGGRVFLFLNTDNINRDYNMYISKQVKFVREISQEYYGKVAVFEDLYGNLWDLIE | 0.0316
HMPKNRTDYVQDVLKSLGRPAHYKEITQIINAMLPKEAQYSAKSIQVVLGSSPLFIRVGTGTYALVE | -1.73
HMPKNVEVPNVVGLSLPMAKLRLTQLGLHIVVRDSVWSETGQPNTILDQDPQPGKKIKPESTVYVKVN | -1.48
HMPKRYAGPDIIAIYGSDVFFRVGSGDGLMVIPVGRSMDNIEVVSVDAPRSVELMWKDGGPFTVPV | 0.145
HMPKSKTPDDAAEEFRTAFSALDMDGKVTVKDMAEYMGVIDKTVYARLKKMGDEFTLDKGVITKKT | -0.104
HMPKTATIVIDLNYADAKEIVENLQTILAGETKDISVAPHPSANQIIASGDRWEVENISTIIKQLDR | 0.26
HMPKTLTEAAYEDIKQWILEGEITPGSKISLEDTASRLEVSMTPIREALTKLQQEGLVEYIPRAGWRASK | -0.0907
HMPLAQRFGLTVAQARVLDLLAEGRSNRQIGELLGLTEGTVKIHVSAIMKAMGVSNRAEAALMANRKR | -1.7
HMPLDKDTTLDEIYRRFNMEHPADYKGHSLSMGDIVVFRQDGKQTAYYVDEGADYRQVPEFFVK | -0.0344
HMPLDPFVVDALRDEIINTIKQHEPRVDLQKVQVQPIYTQNRVNISVQYKIVGLPIVEDITFVLQRP | 0.39
HMPLEKGVVILDVTPSSAKVAVDGTSVETTYPLRLSAGLHQLSAEADGYDSITEYFKVETEKTTVTLDLSK | 0.236
HMPLEQAELRLDLKQAILQMDRQTQELLLLRYVDGLSPGEAGKVLELSRFAVYRREKEALRKLRDYFSH | -1.93
HMPLLSEWDAALEELWAKLGDVPMDPETERMDAPFLGFPAGTPREDIWHWFDERHSKGVAHLLYG | -2.46
HMPLQYRLTVQPTPTNARVRLVNSAFTYRPGVALPPGSYIVEVSSSGYGAKRQAVQIADGDVTVPVELEKI | -0.582
HMPLYKYYTSYQIEPGDTLTSIAQKYTINSDVSVQDYIDEVKKNNNLVSDKINSGSYLVVSYYSNEY | -1.36
HMPNIQLARNLKYLRLAYGLTQDDLGAFLNISRQAYSNYENLKRSPDLDSLIRLASLYHLSLDDLVSR | -3.31
HMPNTLAGIERYLGSGMVKGIGPVYASRLVSAFGTAVFDVIEQTPERLREIDGIGEKRTRKITSGWADQ | -0.213

Sequence | soluble fraction (log2)
HMPNYIDAISALLTLKGVGDRKHASTMANILNLQYNSAKQKLDGKRGITLDEVKKVFQYFNEPF | -1.44
HMPPAPGHDLTEREREVLRLLVEGLSNQEISDRLVISQSTVKNHVSSVLSKLDAANRAEAVALALKNQL | 0.0595
HMPPELSDEVMEEAMSYLKNQYLNHGVKLEDYPALNKLFVDEAFRSEVIRKTQSNYKISYQSAMASLD | 0.355
HMPPENVSVRREQIAEDKKTVYNVWVTKGNKTVLYSKVVYAWGGVYFFRDLNTSISENMYKQADAGLVN | 0.00373
HMPPGQIVNEALQRAGNSTPTGTAISAQDDIKLYTSALAELATQGDTSSASVAKLREALQTAQVAFYNAV | 0.201
HMPPITIVPNDNGVPIIRSQTPEISTAVNVELKAAGINTHTIDGTSIRVPKAQAQVAQQIVSRVNTRFT | 0.151
HMPPNHADLKSSGLKATLPRLKILEIFQNSQVRHLSAEDVYKLLLAENLDVGLATVYRVLTQFEQAGL | -0.522
HMPPNRDDEHLQALRDYYAANRRIPSLQRVASLLGFSSRSAAVKLMGRLADEGFIERTADDDAWITGKRFF | -1.34
HMPPNVLSEREQEVLQLAADGMSNKEMGSELYIAPTTVRDHMQSIMRKLQVNSRTAAAVAGLKLGLLD | -0.452
HMPPPTLVESAYNHLKADIISSYLKPDEKINLKDLSQRYQVSETPIKQALNRLISEGLIISVPRKGMWVH | 0.0697
HMPPPVERAIRKLGHDLSLARRRRRISQDSMAQRMGASVSTVRRIEKGDPRIPIHFIARAMMILGDLKAL | 0.0447
HMPQFDRQAFGQRLRLLRDYREMTQQQVANFLNVDRSTYSYYENGKTEPSITVLMRMAELFSVTLDSLLNM | -3.92
HMPQIDLYPFEVRIEQDNNAAEYAVRFLDVPNIIGSGASIDEAIVEARGNLKEYLDYLIDTNRDIPLPS | -0.339
HMPQISQDDLMEAGLIVGKEAKQRRIKLGEILGIGYVNAKQLPKRLQLFQVAKSDFEQAVQQIDG | -0.218
HMPQKSDLTMEEYNKLGLAGGSGSRKLREQVGIRLSVGYGNSKQFYNRLHTFGISLDELKTAVEEVKNG | 0.226
HMPQNVSVPDVTNMTQAEAESKLKEKNLAVGNIIPELSTTVEKDKVTRTNPESGSNVRKNSKVDIYVSQG | 0.154
HMPQPDVIEVRQGIVTGMRPDRRTGWLRDEEDAAGEPKSFSIDVITPKGRTPGKGAVVTYTLTNGKITEVK | -0.047
HMPRELKVRDVSHQHAGHAGWREGGETHFEVDMKADVFAGTSRVAAHRMVNKVLANELASRVHALQLNLS | 0.0164
HMPRENLAYTLIMDGIVQHKNLPRASVTEAWLKQELQKAGINDFRQVLIAGIDSKGQLYFQPKQK | ≥ 1.04
HMPRPLVAPMPGLIVRVTAVVGDSVDAGQGLVVMEAMKMENELRTTTAGVVKTVHVQPGVAVEKGALLIEF | -0.827
HMPRTEILMVDEEMEGERLDAFVAEQLDELSRSLVKTLIENGEIRVDGKQQKPSYRLKAGEEIIVEIPA | 0.439
HMPSDTNLIGKTGIAYTTLRPGGTALIDDRKVDVVADSEYIEKDKKIKVIRVEGIKVVVTAVK | 0.164
HMPSGRIRWFDAKKGYGFIAGDDGKDVFLPQTALPQGVRNPRKGAKVEYSVIEGNRGQVAMGVTMV | -0.331
HMPSHALFWTLLKEVPGYDPHYKDVIKEGIVHEHSGGRTTSLSEMYTKYPREYSLMIEAMKG | -0.475
HMPSKTFYNLSQEKQQKIIDASEKEFSNNLYQDVSLNQIIKNSNISRGSFYMYFTDKEDLYFYLLNEY | -0.731
HMPSLGADIRALRKSRKMTLVALADALGRSVGWLSQVERDKSHATIADLGRMAEVLDVSISSFL | -0.273

Sequence | soluble fraction (log2)
HMPSLSAILHDARVAAGLSMRQASAASGLSIGFISMLEQGKVQDISLQRLGRLVTAYDLEPLDVIEAAG | -1.83
HMPSSAYGPYKNVFLSNSELTKLKNELPTSWEHYINRLSEYMRSTGRQYQSHAATILRWAATDRNS | -0.488
HMPSSFLVKVTADALNIRSGPGVANRITGTIKDKGTYTIVDTKDDWGKLKSGVGWIHLGYTKRLD | -0.857
HMPSSQQVMRRLATVGPDKTLEELQRQHDAHLRKYGEFNDFRGERQQMRQEMERIKEAKQGTGPYAHLMG | 0.025
HMPTAGYMTVTPDRVKEGQQFLATLRPPYVLKADGLAAGKGVLILPELEEAQRELEEMLGGFLGELSVNR | 0.136
HMPTERLSMRRIRELLRLRFEVGLSTRLIATALGISKGAVGDYLQRAQVAGLGWPLPENLNDAALERRLFP | -1.38
HMPTGRVVIPLNRLTASDVARILDEAYGRDHNFEVVKPSRLAKGIIVIGPKSEIDGIKELLAH | -0.829
HMPTLLGYKHILSAWNPDTNTVFRTSYGYDGEYGSREEAMQALIKMIQEGGKATPRGIEESEVPIY | -0.238
HMPTLSKVGSQGEEVRQIQTKLKNWGYLNDRVDGIYGPKTRDAVIWFQKKNGLVADGIAGPATLKAMGIFT | -0.142
HMPTMVAQINEIVQAKLPGSGLKDYTIRLVESQRDGVVVWVNGTRYLGVDEVAEPQVQALLKEAVAEWERS | -0.462
HMPTQGELAILRVLWEQGPSTVRAVWEKLNSQSGTGYTTALKLMQIMAQKGLVSRDESQKTHVYRA | -1.54
HMPTTRPEAEAHYETHQRYHDLQIDVEGREAFKVATGSLTLVQEFDEKDDYDLSIPTPRSPAILLTT | -0.0329
HMPVFYVTGNRVNFRAGPSTGDRVIGSLSQGAAVEVLGPTDDAWINIRDSDGRVGYMSAQFLSQ | 0.355
HMPVLDETVPAALDGERIDRVVALLADVSRNRAGIAIAAGSVRLDGAVVTQRSRKVRADEELVVDGLER | 0.107
HMPVNEEFKRLIDKIKYEFSINQAQISERLGVKSTYLSDMINGRVPYNESMQKKIHEVFHIG | -0.424
HMPVNGEFIERIKVMVLENKAKGKKERLTKTRMHQLLQEEGYKGSYSAFTHQVRIIEEELGVNQKEAH | -0.48
HMPVSRMRARHEALARGVMGIHAGGFSAVYGYRKVWHGLIGKGWDPGEVGRDQVMNIMRGLGMQGVRR | -0.132
HMPVSVAEQKQILAEALQERGHATFRELIENADNRMIVVGRFLALLELYRDGTVRFEQERALGELTIHWEE | -2.07
HMPYIVNHIHLKSEDPKITADWFVKAFNFEIVSDVVRHFGDRFIVTKAEGGMTINISGVRDGEEL | 0.141
HMPYNNLADAPASWKKLDDTPLTLGQVNWIAKIYDALVAKGMEKGAAAGTAISRFKKSFKVADGKWVQV | -0.478
HMPYNRRYLISNADGALYTVEENGLVKLEETNLTAELFETRGMQDIPDGKLLITLHDPTILYWHDSENLFP | -1.5
HMPYSPTPGSAPARLIAHLQEHGDSVNRTAIAELLQVDRKNVHNYLARAVTHGLLLRHGGGAYSLP | 0.0908
HMQADEENPKYPVITDGVIQLEVLESIDKTEEWLVERLAKDGYNNVSEIFIAEYENGNLSIVT | 0.0913
HMQADPYTVLGVLRDVTDGELKREYRKLVREHHPDALIAQGVPQEFVDIANNKLAVINAAYERIAKQRGL | -0.154
